Experimental data from publication PMC7662524, “Determination and Dissection of DNA-Binding Specificity for the Thermus thermophilus HB8 Transcriptional Regulator TTHB099”.

T1: TTHB099 (Thermus thermophilus HB8, UniProt Q53W63 1-195)
T1 sequence: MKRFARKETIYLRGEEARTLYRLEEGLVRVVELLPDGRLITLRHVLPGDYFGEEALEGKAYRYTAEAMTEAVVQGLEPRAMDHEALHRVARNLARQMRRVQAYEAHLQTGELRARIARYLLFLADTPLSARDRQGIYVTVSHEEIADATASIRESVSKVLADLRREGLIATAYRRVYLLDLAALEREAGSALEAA


The binders below were run against T1, TTHB099 (assay: BLI; Buffer, salt, pH and temperature not given (as previously described); BLI 17, 50, 150, 450 nM TTHB099 on streptavidin sensors; EMSA 0-42.2 nM TTHB099). Settings: protein: recombinant; label: 5' biotin.

Row | Binder | Kd
1 | TTHA1833 site (dsDNA) DNA 1: AGGAATTCGTGCAGAGGTGAATTGTAGGCCAGGCCACGTTACCATCCCTCCAGAAGCTTG DNA 2: CAAGCTTCTGGAGGGATGGTAACGTGGCCTGGCCTACAATTCACCTCTGCACGAATTCCT | 3.05 nM
2 | ST2_099 m7 (dsDNA) DNA 1: AGGAATTCGTGCAGAGGTGAATTGTATTTTAGAATACATTACCATCCCTCCAGAAGCTTG DNA 2: CAAGCTTCTGGAGGGATGGTAATGTATTCTAAAATACAATTCACCTCTGCACGAATTCCT | 5.82 nM
3 | TTHA0201/02 site (dsDNA) DNA 1: AGGAATTCGTGCAGAGGTGAATTTTGTTATACGCCACATTACCATCCCTCCAGAAGCTTG DNA 2: CAAGCTTCTGGAGGGATGGTAATGTGGCGTATAACAAAATTCACCTCTGCACGAATTCCT | 780 nM
4 | TTHA0506/07 site (dsDNA) DNA 1: AGGAATTCGTGCAGAGGTGAATTGTTTTTCAAGATACATTACCATCCCTCCAGAAGCTTG DNA 2: CAAGCTTCTGGAGGGATGGTAATGTATCTTGAAAAACAATTCACCTCTGCACGAATTCCT | 77.6 nM
5 | ST2_099 m8 (dsDNA) DNA 1: AGGAATTCGTGCAGAGGTGAATTGTATTCAAGAATACATTACCATCCCTCCAGAAGCTTG DNA 2: CAAGCTTCTGGAGGGATGGTAATGTATTCTTGAATACAATTCACCTCTGCACGAATTCCT | 6.81 nM
6 | ST2_099 m1 (dsDNA) DNA 1: AGGAATTCGTGCAGAGGTGAATGGTATTCTAGAATACATTACCATCCCTCCAGAAGCTTG DNA 2: CAAGCTTCTGGAGGGATGGTAATGTATTCTAGAATACCATTCACCTCTGCACGAATTCCT | 6.29 nM
7 | ST2_099 m2 (dsDNA) DNA 1: AGGAATTCGTGCAGAGGTGAATTTTATTCTAGAATACATTACCATCCCTCCAGAAGCTTG DNA 2: CAAGCTTCTGGAGGGATGGTAATGTATTCTAGAATAAAATTCACCTCTGCACGAATTCCT | 33.6 nM
8 | TTHA1626/27 site (dsDNA) DNA 1: AGGAATTCGTGCAGAGGTGAATGGTATGGGAAGCTACATTACCATCCCTCCAGAAGCTTG DNA 2: CAAGCTTCTGGAGGGATGGTAATGTAGCTTCCCATACCATTCACCTCTGCACGAATTCCT | 102 nM
9 | TTHB088/89 site (dsDNA) DNA 1: AGGAATTCGTGCAGAGGTGAATGGTAGCCTGGACCACATTACCATCCCTCCAGAAGCTTG DNA 2: CAAGCTTCTGGAGGGATGGTAATGTGGTCCAGGCTACCATTCACCTCTGCACGAATTCCT | 3.35 nM
10 | ST2_099 m6 (dsDNA) DNA 1: AGGAATTCGTGCAGAGGTGAATTGTATACTAGAATACATTACCATCCCTCCAGAAGCTTG DNA 2: CAAGCTTCTGGAGGGATGGTAATGTATTCTAGTATACAATTCACCTCTGCACGAATTCCT | 5.61 nM
11 | ST2_099 m5 (dsDNA) DNA 1: AGGAATTCGTGCAGAGGTGAATTGTACTCTAGAATACATTACCATCCCTCCAGAAGCTTG DNA 2: CAAGCTTCTGGAGGGATGGTAATGTATTCTAGAGTACAATTCACCTCTGCACGAATTCCT | 4.86 nM
12 | TTHA1911/12 site (dsDNA) DNA 1: AGGAATTCGTGCAGAGGTGAATTGTACTTGAGCATACCTTACCATCCCTCCAGAAGCTTG DNA 2: CAAGCTTCTGGAGGGATGGTAAGGTATGCTCAAGTACAATTCACCTCTGCACGAATTCCT | 65.6 nM
13 | ST2_099 m3 (dsDNA) DNA 1: AGGAATTCGTGCAGAGGTGAATTGAATTCTAGAATACATTACCATCCCTCCAGAAGCTTG DNA 2: CAAGCTTCTGGAGGGATGGTAATGTATTCTAGAATTCAATTCACCTCTGCACGAATTCCT | 13.8 nM
14 | TTHA0080/81 site (dsDNA) DNA 1: AGGAATTCGTGCAGAGGTGAATTGTGTTTTAGTTTACTTTACCATCCCTCCAGAAGCTTG DNA 2: CAAGCTTCTGGAGGGATGGTAAAGTAAACTAAAACACAATTCACCTCTGCACGAATTCCT | 93.2 nM
15 | TTHA0132/33 site (dsDNA) DNA 1: AGGAATTCGTGCAGAGGTGAATTGTAAGGGAGAATAAATTACCATCCCTCCAGAAGCTTG DNA 2: CAAGCTTCTGGAGGGATGGTAATTTATTCTCCCTTACAATTCACCTCTGCACGAATTCCT | 221 nM
16 | ST2_099 m4 (dsDNA) DNA 1: AGGAATTCGTGCAGAGGTGAATTGTCTTCTAGAATACATTACCATCCCTCCAGAAGCTTG DNA 2: CAAGCTTCTGGAGGGATGGTAATGTATTCTAGAAGACAATTCACCTCTGCACGAATTCCT | 9.56 nM

Each binder was assayed against T1, TTHB099 (assay: BLI; up to 450 nM TTHB099; Buffer, salt, pH and temperature not given (as previously described); BLI 17, 50, 150, 450 nM TTHB099 on streptavidin sensors; EMSA 0-42.2 nM TTHB099). Settings: protein: recombinant; label: 5' biotin.

Row | Binder | binding result
17 | TTHA0374 site (dsDNA) DNA 1: AGGAATTCGTGCAGAGGTGAATAGTGATGTAAACTAAATTACCATCCCTCCAGAAGCTTG DNA 2: CAAGCTTCTGGAGGGATGGTAATTTAGTTTACATCACTATTCACCTCTGCACGAATTCCT | no binding
18 | ST2_REPSAis control (dsDNA) DNA 1: CTAGGAATTCGTGCAGAGGTGAATCGTCATAGAATTCGTTACCATCCCTCCAGAAGCTTGGAC DNA 2: GTCCAAGCTTCTGGAGGGATGGTAACGAATTCTATGACGATTCACCTCTGCACGAATTCCTAG | no binding
